A short description of experiment [1]: Complementation of N-terminal split HaloTag constructs in E. coli lysates, Janelia Fluor ligand fluorescence. The experiment is classed as biochemical. Conditions: 500 nM Rapamycin, 50 nM JF646. The protocol:
FIG. 21A-B. Comparison of complementation activity of N-terminal split HaloTag constructs. Each HaloTag fragment was expressed separately in E. coli and then combined after lysis. The smaller N-terminal HaloTag fragments as FKBP fusions were tested against the larger fragments of FIG. 21A HT(23-297)-FRB or FIG. 21B HT(22-297)-FRB. To each reaction, 500 nM Rapamycin was added and incubated at room temperature for 2.5 hours prior to addition of 50 nM JF646 ligand and measurement of fluorescence at the indicated timepoint.
FIG. 22. Comparison of truncations of N-terminal split HaloTag constructs. Each HaloTag fragment was expressed separately in E. coli and then combined after lysis. […] To each reaction, 500 nM Rapamycin was added and incubated at room temperature for 2 hours prior to addition of 50 nM JF646 ligand and measurement of fluorescence at the indicated timepoint.
FIG. 25A-B. Mutations in N-terminal split HaloTag fragments improve fluorescence intensity and fold response. […] To each reaction, 500 nM Rapamycin was added and incubated at room temperature for 2 hours prior to addition of 50 nM JF646 ligand and measurement of fluorescence at the indicated timepoint. FIG. 25A Fluorescence intensity is shown for +Rapamycin condition to show the overall system brightness relative to FIG. 25B Fold response following Rapamycin addition. […]

The subject of experiment [2] is synthetic HaloTag[3-19] peptide. The experiment in a line: Complementation of large HaloTag fragment in E. coli lysates with synthetic HaloTag[3-19] peptide, JF646. The experiment is classed as binding. Conditions: for Kd: synthetic HaloTag[3-19] peptide titration up to 1 mM, estimated from saturation of fluorescence signal, read-out: affinity between the split HaloTag fragments. The protocol: FIG. 30. Complementation of HaloTag[22-297](M2F) fragment in E. coli lysates using a synthetic HaloTag[3-19] peptide. […] Reactions were incubated for 2 hours at room temperature and then labeled with 50 nM JF646 HaloTag ligand prior to fluorescence detection.
FIG. 31. Complementation of HaloTag[22-297](Q145H+P154R) fragment in E. coli lysates using a synthetic HaloTag[3-19] peptide. […] Reactions were incubated for 2 hours at room temperature and then labeled with 50 nM JF646 HaloTag ligand prior to fluorescence detection.

[3] abbreviates: compared with HaloTag[22-297](M2F).

The text below walks through data of US20240174992A1, “SPLIT MODIFIED DEHALOGENASE VARIANTS” (Promega Corporation, priority 2022, published 2024).

Numbering of substitutions follows the chain as printed. Names may count otherwise. Some results are limits rather than exact numbers.

B1: HaloTag[22-297](M2F): large HaloTag fragment, positions 22-297 with M to F substitution at second position (protein)
chain: MFHYVDVGPRDGTPVLFLHGNPTSSYVWRNIIPHVAPTHRCIAPDLIGMGKSDKPDLGYFFDDHVRFMDAFIEALGLEEVVLVIHDWGSALGFHWAKRNPERVKGIAFMEFIRPIPTWDEWPEFARETFQAFRTTDVGRKLIIDQNVFIEGTLPMGVVRPLTEVEMDHYREPFLNPVDREPLWRFPNELPIAGEPANIVALVEEYMDWLHQSPVPKLLFWGTPGVLIPPAEAARLAKSLPNCKAVDIGPGLNLLQEDNPDLIGSEIARWLSTLEISG
Regarding B1, in experiment [1], the “effect of mutation in the HT(22-297) large fragment on system performance” value is listed as “improve the fold response”. The Kd in experiment [2] was above 100000 nM.

B2: HaloTag[22-297](Q145H+P154R): variant of the LgHT, positions 22-297 with HaloTag9 mutations (protein)
chain: B1 chain with F2M, Q145H, P154R
For the molecule B2, the “effect of mutation in the HT(22-297) large fragment on system performance” value in experiment [1] is on record as “significantly enhanced the labeling speed”. Moreover, in experiment [2] (setting [3]), the complemented signal entry was “higher complemented signal” and the fold response result is “lower fold response”. Also, in experiment [2], the Kd was around 1000 nM.
